From PMC2786004 (Biochemistry, 2009) come the findings set out here.

The data set concerns the molecule itself. The experiment in a line: crystal structure.

B1: Bacillus halodurans tRNA isopentenyltransferase MiaA (BH2366), full length (enzyme, UniProt Q9KAC3 1-314, looked up)
chain: MKEKLVAIVGPTAVGKTKTSVMLAKRLNGEVISGDSMQVYRGMDIGTAKITAEEMDGVPHHLIDIKDPSESFSVADFQDLATPLITEIHERGRLPFLVGGTGLYVNAVIHQFNLGDIRADEDYRHELEAFVNSYGVQALHDKLSKIDPKAAAAIHPNNYRRVIRALEIIKLTGKTVTEQARHEEETPSPYNLVMIGLTMERDVLYDRINRRVDQMVEEGLIDEAKKLYDRGIRDCQSVQAIGYKEMYDYLDGNVTLEEAIDTLKRNSRRYAKRQLTWFRNKANVTWFDMTDVDFDKKIMEIHNFIAGKLEEKSK
For the protein B1, the stoichiometry N (in general, a count of units in the complex or per binding partner) stood at 2.
